Experimental data taken from publication PMC3220268.

Key:
actin filaments = actin filaments (UniProt P68135); assay: co-sedimentation; actin co-sedimentation (pelleting) of rArp2/3 complex with actin filaments, as described in ref. 46
[1] = biological target: gelsolin-capped actin filaments (UniProt P68135); assay: pointed end capping assay (elongation from gelsolin-capped actin filaments); gelsolin-capped actin filaments (100 nM), 4 µM actin with pyrene-labeled actin; slowing of pointed end elongation by rArp2/3 complex

Row | Kd (actin filaments) [µM] | fold decrease in affinity against WT [1] [fold] | Substance
1 | 1.5 | – | recombinant Arp2/3 complex with ARPC4 R105A and R106A mutations (from UniProt P61158 1-418; P61160 1-394; O15143 1-372; O15144 1-300; O15145 1-178; P59998 1-168; O15511 1-151)
2 | – | 8 | recombinant Arp2/3 complex with Arp2 T237A, T238A, and Y202A mutations (from UniProt P61158 1-418; P61160 1-394; O15143 1-372; O15144 1-300; O15145 1-178; P59998 1-168; O15511 1-151)
